Experimental data reported in PMC5802752 (Nature Communications, 2018).

Target: T1, factor H-binding protein (fHbp) variant 1.1, recombinant (Neisseria meningitidis serogroup B MC58 …, UniProt Q9JXV4)
T1 construct: not shown: His6, C-terminal, kept
Assay: crystal structure
Conditions: both partners purified

B1: human Fab 1A12 (Fab, V domains shown)
VH: EVQLVQSGAELKKPGESLKISCKASGYTFTNYWVVWVRQMPGEGLEWMGSIHPRDSDARYSLSFEGRVTFSVDKSTTTAYLQWSSLKVSDSAIYYCARLSQVSGWSPWVGPWGQGTLVTVSS
VL: DIVMTQSPSSLSASVGDRVTITCRASQSISVSLNWYQQKPGKAPKVLIYAASRLQSGIPSRFSGSGSGSHFTLTISSLQPEDFATYYCQETYSDLMYTFGQGTKVEIK
  binding result: binds
